Laboratory results as given in paper PMC9320952 (Molecular Microbiology, 2022).

Target: the molecule itself
Assay: negative staining electron microscopy

B1: SepF (purified, freed from MBP-SepF by factor Xa) (natural protein, B. subtilis, UniProt O31728 1-151, looked up)
chain: MSMKNKLKNFFSMEDEEYEYEYIETERESHEEHEQKEKPAYNGNKPAGKQNVVSLQSVQKSSKVVLSEPRVYAEAQEIADHLKNRRAVVVNLQRIQHDQAKRIVDFLSGTVYAIGGDIQRIGSDIFLCTPDNVDVSGTISELISEDEHQRW
binding result: binds
